Measurements reported in PMC5692578.

Target: Mcm2-7 hexamer (S. cerevisiae) (UniProt P29469)
Experiment: cryo-EM structure

stoichiometry N: 2 hexamers
Substance: Mcm2-7 hexamer, P29469;P24279;P30665;P29496;P53091;P38132
